In patent US20080118919A1:

Target: B42 activation domain-EE34 prey fusion protein (yeast, pJG4-5)
Assay: cell-based or functional assay

β-glucuronidase reporter activity with MU-gluc substrate, combination 6 relative to combination 5, yeast two-hybrid (fold higher than combination 5): 10
Substance: λ cI-RR34 bait fusion protein (from UniProt P03034 1-237)
